Laboratory results: article PMC3896865
Read-outs that look alike come from different tables or passages of the source.

Legend:
Test in all cases: ITC
[1] = target: T1, EGR1 DB_WT (Zif268 DNA-binding domain) (human, UniProt P18146 331-430)
[2] = target: T1, EGR1 DB_WT (Zif268 DNA-binding domain); remark: listed apart in the source
[3] = target: T1, EGR1 DB_WT (Zif268 DNA-binding domain); remark: listed apart in the source
[4] = target: T1, EGR1 DB_WT (Zif268 DNA-binding domain); remark: listed apart in the source
[5] = target: T1, EGR1 DB_WT (Zif268 DNA-binding domain); remark: listed apart in the source
[6] = target: T1, EGR1 DB_WT (Zif268 DNA-binding domain); remark: listed apart in the source
[7] = target: T1, EGR1 DB_WT (Zif268 DNA-binding domain); remark: listed apart in the source
[8] = target: T1, EGR1 DB_WT (Zif268 DNA-binding domain); remark: listed apart in the source
[9] = target: T1, EGR1 DB_WT (Zif268 DNA-binding domain); remark: listed apart in the source
EGR1 DB_H382E = EGR1 DB_H382E (human, UniProt P18146 331-430, H382E)
EGR1 DB_H382A = EGR1 DB_H382A (human, UniProt P18146 331-430, H382A)
EGR1 DB_H382K = EGR1 DB_H382K (human, UniProt P18146 331-430, H382K)
EGR1 DB_H382R = EGR1 DB_H382R (human, UniProt P18146 331-430, H382R)
[10] = target: T1, EGR1 DB_WT (Zif268 DNA-binding domain); remark: listed apart in the source

B1: ZRE duplex (15-mer) (dsDNA)
DNA 1: ATAGCGTGGGCGTTT
DNA 2: AAACGCCCACGCTAT
- Kd [1]: 345 nM
- Kd [2]: 324 nM
- Kd [3]: 758 nM
- Kd [4]: 314 nM
- Kd [5]: 266 nM
- Kd [6]: 421 nM
- Kd [7]: 755 nM
- Kd [8]: 1030 nM
- Kd [9]: 1330 nM
- Kd (EGR1 DB_H382E): 2300 nM
- Kd (EGR1 DB_H382A): 1610 nM
- Kd (EGR1 DB_H382K): 2260 nM
- Kd (EGR1 DB_H382R): 2040 nM
- Kd [10]: 271 nM
